The values below come from patent US20210070886.

Data set [1] deals with fluorescein labeled bovine serum albumin (BSA), free in solution (UniProt P02769).
Data set [2] addresses fluorescein-modified BSA encapsulated in octahedra-shaped DNA origami (OCs) (UniProt P02769).

trypsin, sequence (P00760 24-246): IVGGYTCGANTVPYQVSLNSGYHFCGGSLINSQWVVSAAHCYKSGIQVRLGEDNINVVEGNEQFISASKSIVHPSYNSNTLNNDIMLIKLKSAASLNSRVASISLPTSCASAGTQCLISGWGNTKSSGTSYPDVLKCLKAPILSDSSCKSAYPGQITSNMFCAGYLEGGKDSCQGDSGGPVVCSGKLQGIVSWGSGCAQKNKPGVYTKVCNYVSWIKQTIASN
fluorescein-modified BSA encapsulated in octahedra-shaped DNA origami (OCs), sequence (P02769 25-607): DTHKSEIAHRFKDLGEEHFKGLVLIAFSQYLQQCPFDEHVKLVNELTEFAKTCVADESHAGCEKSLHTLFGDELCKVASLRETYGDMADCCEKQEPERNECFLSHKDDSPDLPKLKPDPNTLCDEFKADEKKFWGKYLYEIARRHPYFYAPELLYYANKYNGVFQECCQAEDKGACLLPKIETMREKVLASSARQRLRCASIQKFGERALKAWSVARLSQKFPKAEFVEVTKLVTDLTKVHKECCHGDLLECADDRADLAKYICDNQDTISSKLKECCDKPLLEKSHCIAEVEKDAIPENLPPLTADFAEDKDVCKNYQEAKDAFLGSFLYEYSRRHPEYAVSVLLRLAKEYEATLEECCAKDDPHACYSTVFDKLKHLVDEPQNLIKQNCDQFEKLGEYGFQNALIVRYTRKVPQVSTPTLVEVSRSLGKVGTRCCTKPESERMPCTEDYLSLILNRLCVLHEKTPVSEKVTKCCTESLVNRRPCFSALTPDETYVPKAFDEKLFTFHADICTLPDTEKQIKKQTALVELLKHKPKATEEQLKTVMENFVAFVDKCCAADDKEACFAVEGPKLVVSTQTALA
fluorescein labeled bovine serum albumin (BSA), free in solution, sequence (P02769 25-607): as above

As to trypsin, the “fluorescence enhancement of fluorescein labeled BSA in solution on tryptic digestion” value in data set [1] was “an 85% increase in the fluorescence intensity”. In data set [2], the “fluorescence enhancement on tryptic digestion, BSA encapsulated inside PE2-coated OCs” value is reported as “further reduced to ˜14% by PE2 coating on the OC surface” and the “fluorescence enhancement on tryptic digestion, BSA encapsulated inside bare OCs” value is recorded as “reduced to ˜40% by protein encapsulation inside the OCs”.
